Data as given in patent US6747005.

Columns and labels:
[1] = biological target: recombinant Importin α Rch1, full-length, P52292
[2] = biological target: Rch1 N-terminal fragment (residues 1-95), P52292
[3] = biological target: ΔN-Rch1 lacking the Importin β binding site, P52292

B1: recombinant CBP HAT domain (amino acids 1098-1758) (protein)
chain: TLEALYRQDPESLPFRQPVDPQLLGIPDYFDIVKNPMDLSTIKRKLDTGQYQEPWQYVDDVWLMFNNAWLYNRKTSRVYKFCSKLAEVFEQEIDPVMQSLGYCCGRKYEFSPQTLCCYGKQLCTIPRDAAYYSYQNRYHFCEKCFTEIQGENVTLGDDPSQPQTTISKDQFEKKKNDTLDPEPFVDCKECGRKMHQICVLHYDIIWPSGFVCDNCLKKTGRPRKENKFSAKRLQTTRLGNHLEDRVNKFLRRQNHPEAGEVFVRVVASSDKTVEVKPGMKSRFVDSGEMSESFPYRTKALFAFEEIDGVDVCFFGMHVQNTALIAPHQIQGRVYISYLDSIHFFRPRCLRTAVYHEILIGYLEYVKKLGYVTGHIWACPPSEGDDYIFHCHPPDQKIPKPKRLQEWYKKMLDKAFAERIINDYKDIFKQANEDRLTSAKELPYFEGDFWPNVLEESIKELEQEEEERKKEESTAASETPEGSQGDSKNAKKKNNKKTNKNKSSISRANKKKPSMPNVSNDLSQKLYATMEKHKEVFFVIHLHAGPVISTQPPIVDPDPLLSCDLMDGRDAFLTLARDKHWEFSSLRRSKWSTLCMLVELHTQGQDRFVYTCNECKHHVETRWHCTVCEDYDLCINCYNTKSHTHKMVKWGLGLDDEGSSQG
Importin α7
  acetylation (analysis as in the first experiment): CBP was shown to acetylate Importin α family members, Rch1 and Importin α7
[1]
  acetylation ([14-C]-acetyl coA, SDS-PAGE, blot exposed to film): Only the full-length Rch1 and the N-terminal 1-95 fragment showed acetylation.
  acetylation (analysis as in the first experiment): CBP was shown to acetylate Importin α family members, Rch1 and Importin α7
[2]
  acetylation ([14-C]-acetyl coA, SDS-PAGE, blot exposed to film): Only the full-length Rch1 and the N-terminal 1-95 fragment showed acetylation.
[3]
  acetylation ([14-C]-acetyl coA, SDS-PAGE, blot exposed to film): Only the full-length Rch1 and the N-terminal 1-95 fragment showed acetylation. (ΔN-Rch1 showed none)
